US20090286962A1 (published 2009)
Changes are numbered by the printed parent chain.

Molecular target: T1, TNF (UniProt P01375 77-233)
T1 construct: also called TNF-α; Tumor Necrosis Factor-α
Assay: ELISA on solid-phase TNF (screen of the affinity maturation libraries)

T1 sequence (P01375 77-233 limits assumed): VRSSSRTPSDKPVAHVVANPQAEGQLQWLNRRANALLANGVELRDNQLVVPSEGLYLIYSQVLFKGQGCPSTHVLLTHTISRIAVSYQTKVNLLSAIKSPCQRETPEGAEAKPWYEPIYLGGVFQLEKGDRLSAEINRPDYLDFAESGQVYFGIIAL

B1: Compound 100 (other)
VL: DIQMTQSPSSLSASVGDRVTITCRASQSIDSYLHWYQQKPGKAPKLLIYSASNLETGVPSRFSGSGSGTDFTLTISSLLPEDFATYYCQQVVWRPFTFGQGTKVEIKR
notes: Domain antibody (dAb); also called anti-TNF dAb Compound 100
  binding result: binds

B2: Compound 123 (other)
VL: B1 VL with S28A, L79Q
notes: Domain antibody (dAb)
  binding result: binds
